What was measured:
[1] = target: T1, Gly-Asp-Asp-Asp-Asp-Lys-β-naphthylamide
T1 chain: GDDDDK

[2] = target: T2, recombinant fusion protein of human kallikrein 8 (hK8), O60259
T2 sequence (O60259 whole entry, looked up): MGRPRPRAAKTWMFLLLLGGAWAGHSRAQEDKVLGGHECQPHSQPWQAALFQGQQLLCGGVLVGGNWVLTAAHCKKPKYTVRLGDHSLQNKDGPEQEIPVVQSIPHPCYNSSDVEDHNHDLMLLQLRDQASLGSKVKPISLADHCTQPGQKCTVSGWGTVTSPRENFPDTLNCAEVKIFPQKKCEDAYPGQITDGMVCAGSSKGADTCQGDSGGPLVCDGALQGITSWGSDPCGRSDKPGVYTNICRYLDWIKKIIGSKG

[3] = target: recombinant fusion protein of Medaka gelatinase A
Z-Phe-Arg-MCA = target: T3, Z-Phe-Arg-MCA
T3 chain: FR

Pro-Phe-Arg-MCA = target: T4, Pro-Phe-Arg-MCA
T4 chain: PFR

[4] = target: T5, Boc-Glu(OBzl)-Ala-Arg-MCA
T5 chain: EAR

[5] = target: T6, human high-molecular-weight (HMW) kininogen, P01042
T6 chain: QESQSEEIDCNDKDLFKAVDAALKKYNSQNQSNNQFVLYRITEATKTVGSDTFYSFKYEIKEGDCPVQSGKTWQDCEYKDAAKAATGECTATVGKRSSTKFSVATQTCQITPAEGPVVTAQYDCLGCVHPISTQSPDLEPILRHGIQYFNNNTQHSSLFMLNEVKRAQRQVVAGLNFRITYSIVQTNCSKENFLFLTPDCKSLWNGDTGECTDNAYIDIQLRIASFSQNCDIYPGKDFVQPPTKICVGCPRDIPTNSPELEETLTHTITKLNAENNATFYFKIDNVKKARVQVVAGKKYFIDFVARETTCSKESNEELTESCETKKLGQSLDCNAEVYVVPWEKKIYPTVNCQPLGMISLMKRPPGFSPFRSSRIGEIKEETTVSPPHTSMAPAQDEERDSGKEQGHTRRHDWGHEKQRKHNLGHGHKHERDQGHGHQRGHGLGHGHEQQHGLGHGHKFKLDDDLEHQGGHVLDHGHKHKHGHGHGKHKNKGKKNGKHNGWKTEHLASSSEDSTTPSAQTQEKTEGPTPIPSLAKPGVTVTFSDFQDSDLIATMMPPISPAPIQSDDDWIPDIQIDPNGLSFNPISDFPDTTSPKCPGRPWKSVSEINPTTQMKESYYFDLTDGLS

[6] = target: recombinant fusion protein of Medaka trypsinogen
human fibrinogen, P02671 = target: T7, human fibrinogen, P02671
T7 chain 1: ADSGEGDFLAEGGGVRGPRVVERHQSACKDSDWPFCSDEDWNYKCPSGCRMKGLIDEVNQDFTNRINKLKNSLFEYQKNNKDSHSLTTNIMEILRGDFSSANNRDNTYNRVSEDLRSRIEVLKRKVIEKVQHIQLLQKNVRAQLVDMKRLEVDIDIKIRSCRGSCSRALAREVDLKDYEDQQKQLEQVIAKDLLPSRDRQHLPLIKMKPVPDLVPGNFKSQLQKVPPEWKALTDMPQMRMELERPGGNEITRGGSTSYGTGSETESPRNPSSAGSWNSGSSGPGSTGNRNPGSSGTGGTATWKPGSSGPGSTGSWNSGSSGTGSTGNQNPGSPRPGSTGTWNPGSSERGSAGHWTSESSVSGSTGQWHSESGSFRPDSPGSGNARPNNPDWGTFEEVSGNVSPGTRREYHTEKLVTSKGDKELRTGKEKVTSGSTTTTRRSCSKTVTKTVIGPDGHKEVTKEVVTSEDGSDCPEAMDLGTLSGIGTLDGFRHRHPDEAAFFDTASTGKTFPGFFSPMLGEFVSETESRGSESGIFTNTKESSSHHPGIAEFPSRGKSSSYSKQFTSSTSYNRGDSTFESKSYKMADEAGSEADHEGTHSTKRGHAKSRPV
T7 chain 2: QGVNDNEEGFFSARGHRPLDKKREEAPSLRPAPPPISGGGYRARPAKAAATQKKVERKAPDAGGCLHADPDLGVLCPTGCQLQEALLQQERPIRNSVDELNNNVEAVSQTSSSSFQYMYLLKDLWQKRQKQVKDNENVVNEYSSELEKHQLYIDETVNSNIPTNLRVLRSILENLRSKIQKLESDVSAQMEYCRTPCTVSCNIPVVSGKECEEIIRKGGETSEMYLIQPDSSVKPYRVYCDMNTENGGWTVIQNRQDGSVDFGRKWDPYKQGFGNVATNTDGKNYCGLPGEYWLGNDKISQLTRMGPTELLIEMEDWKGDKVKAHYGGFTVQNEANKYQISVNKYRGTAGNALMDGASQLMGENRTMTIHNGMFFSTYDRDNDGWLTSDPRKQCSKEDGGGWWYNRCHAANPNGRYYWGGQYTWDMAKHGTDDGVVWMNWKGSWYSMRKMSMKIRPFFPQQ
T7 chain 3: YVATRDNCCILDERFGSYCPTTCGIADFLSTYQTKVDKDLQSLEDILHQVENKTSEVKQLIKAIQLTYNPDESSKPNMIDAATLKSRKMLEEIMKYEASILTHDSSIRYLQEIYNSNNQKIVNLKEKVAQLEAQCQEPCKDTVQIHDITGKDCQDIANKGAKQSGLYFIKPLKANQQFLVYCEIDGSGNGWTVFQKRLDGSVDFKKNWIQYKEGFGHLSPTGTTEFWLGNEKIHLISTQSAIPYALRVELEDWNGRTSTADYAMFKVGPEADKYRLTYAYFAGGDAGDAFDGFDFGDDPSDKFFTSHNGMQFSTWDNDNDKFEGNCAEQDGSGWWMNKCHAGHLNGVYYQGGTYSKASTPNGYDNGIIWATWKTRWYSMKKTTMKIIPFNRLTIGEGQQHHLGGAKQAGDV

[7] = target: Human plasma fibronectin, P02751
[8] = target: human single-chain tPA fusion protein with N-terminal His-tag/EP-cleavage site, P00750
human single-chain tPA fusion protein with N-terminal His-tag/EP-cleavage site, P00750, sequence (P00750 whole entry, looked up, the tested form may be a part): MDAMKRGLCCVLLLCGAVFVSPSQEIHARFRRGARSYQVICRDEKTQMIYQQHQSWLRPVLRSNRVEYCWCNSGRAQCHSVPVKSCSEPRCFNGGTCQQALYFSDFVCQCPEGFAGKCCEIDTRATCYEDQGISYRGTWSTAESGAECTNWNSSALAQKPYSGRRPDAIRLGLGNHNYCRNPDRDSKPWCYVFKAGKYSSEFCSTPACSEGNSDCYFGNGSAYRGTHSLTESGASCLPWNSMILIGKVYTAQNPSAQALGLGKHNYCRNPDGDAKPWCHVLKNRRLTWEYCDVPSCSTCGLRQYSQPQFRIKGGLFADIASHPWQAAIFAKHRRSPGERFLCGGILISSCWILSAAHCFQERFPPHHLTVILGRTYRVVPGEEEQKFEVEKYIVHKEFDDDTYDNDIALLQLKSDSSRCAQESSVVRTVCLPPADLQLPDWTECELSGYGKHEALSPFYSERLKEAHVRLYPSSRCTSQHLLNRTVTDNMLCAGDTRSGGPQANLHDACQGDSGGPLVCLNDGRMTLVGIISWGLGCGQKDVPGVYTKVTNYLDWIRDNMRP

Human plasma fibronectin, P02751, sequence (P02751 other isoform, or with tags, fused parts or gaps): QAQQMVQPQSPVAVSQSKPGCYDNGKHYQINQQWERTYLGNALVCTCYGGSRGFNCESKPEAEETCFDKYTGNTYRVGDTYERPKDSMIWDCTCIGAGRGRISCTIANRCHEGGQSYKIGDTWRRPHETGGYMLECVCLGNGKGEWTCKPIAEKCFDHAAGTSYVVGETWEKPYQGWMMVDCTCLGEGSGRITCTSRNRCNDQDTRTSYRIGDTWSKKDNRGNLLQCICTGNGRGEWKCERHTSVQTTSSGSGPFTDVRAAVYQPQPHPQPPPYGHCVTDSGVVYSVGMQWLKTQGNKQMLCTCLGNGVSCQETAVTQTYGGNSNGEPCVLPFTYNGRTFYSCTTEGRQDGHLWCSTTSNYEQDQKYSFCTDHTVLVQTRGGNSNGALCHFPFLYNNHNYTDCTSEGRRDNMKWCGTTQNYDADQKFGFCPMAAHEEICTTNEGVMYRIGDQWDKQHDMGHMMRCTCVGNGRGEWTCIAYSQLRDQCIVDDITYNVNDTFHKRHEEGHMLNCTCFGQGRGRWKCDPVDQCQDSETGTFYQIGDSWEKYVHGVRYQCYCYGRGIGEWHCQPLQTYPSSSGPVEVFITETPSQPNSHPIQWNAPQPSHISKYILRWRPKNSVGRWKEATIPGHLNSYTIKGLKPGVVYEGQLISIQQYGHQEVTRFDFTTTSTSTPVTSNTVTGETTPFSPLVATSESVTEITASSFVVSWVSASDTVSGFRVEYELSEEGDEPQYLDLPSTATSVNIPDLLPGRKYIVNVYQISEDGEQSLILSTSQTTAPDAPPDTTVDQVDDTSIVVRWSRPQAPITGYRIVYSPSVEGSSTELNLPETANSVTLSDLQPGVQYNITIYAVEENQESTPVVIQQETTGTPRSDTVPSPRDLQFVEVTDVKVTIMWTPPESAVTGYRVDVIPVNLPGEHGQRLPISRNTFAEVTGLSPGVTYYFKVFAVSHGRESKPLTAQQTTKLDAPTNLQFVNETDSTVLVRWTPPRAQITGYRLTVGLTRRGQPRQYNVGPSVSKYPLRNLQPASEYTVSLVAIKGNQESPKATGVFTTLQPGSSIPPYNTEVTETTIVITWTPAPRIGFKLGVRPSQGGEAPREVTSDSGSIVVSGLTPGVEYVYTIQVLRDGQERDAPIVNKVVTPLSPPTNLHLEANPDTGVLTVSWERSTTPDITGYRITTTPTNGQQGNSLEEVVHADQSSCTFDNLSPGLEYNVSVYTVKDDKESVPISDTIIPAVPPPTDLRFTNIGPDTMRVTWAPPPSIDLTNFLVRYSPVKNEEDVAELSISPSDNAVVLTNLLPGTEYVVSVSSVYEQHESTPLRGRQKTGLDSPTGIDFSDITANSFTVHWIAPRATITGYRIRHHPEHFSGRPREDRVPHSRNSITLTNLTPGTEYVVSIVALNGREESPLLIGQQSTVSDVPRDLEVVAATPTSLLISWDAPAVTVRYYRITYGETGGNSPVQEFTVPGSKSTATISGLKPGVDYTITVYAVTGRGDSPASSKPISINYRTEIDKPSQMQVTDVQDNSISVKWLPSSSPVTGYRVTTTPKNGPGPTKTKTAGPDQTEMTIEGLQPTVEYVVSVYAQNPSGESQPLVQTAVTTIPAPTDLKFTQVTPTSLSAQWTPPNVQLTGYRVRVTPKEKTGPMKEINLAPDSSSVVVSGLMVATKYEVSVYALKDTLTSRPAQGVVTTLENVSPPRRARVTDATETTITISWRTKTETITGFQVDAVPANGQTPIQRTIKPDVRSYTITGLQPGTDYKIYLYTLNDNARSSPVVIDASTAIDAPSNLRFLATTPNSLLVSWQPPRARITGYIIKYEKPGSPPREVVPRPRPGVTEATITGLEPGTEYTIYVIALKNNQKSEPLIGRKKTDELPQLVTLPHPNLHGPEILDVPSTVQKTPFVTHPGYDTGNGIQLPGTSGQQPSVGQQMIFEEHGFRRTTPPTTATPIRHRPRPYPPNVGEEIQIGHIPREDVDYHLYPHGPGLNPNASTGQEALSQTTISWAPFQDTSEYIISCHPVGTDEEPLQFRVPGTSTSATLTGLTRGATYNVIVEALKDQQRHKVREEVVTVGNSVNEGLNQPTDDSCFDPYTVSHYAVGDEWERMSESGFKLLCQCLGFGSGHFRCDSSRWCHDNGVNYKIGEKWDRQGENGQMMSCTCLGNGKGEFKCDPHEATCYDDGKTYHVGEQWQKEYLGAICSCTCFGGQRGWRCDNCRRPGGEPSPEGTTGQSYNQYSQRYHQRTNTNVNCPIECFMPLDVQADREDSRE

B1: Medaka EP-1 serine protease domain mutant E173A (protein)
chain: VVGGVNAEKGAWPWMVSLHWRGRHGCGASLIGRDWLLTAAHCVYGKNTHLQYWSAVLGLHAQSSMNSQEVQIRQVDRIIINKNYNRRTKEADIAMMHLQQPVNFTEWVLPVCLASEDQHFPAGRRCFIAGWGRDAEGGSLPDILQEAEVPLVDQDACQRLLPEYTFTSSMLCAGYPEGGVDSCQGDSGGPLMCLEDARWTLIGVTSFGVGCGRPERPGAYARVSAFTSWIAETRRSSFSDLD
- Km [1]: 300 µM
- enzyme activity against wild-type [1]: The same held true for all the other mutants except for F144A
- kcat [1]: 5.33 s⁻¹
- kcat/Km (mM^-1 · min^-1) [1]: 1100
- D4K cleaving activity [2]: no serious reduction of the D4K cleaving activity for fusion proteins (gelatinase A, hK8, and tPA)
- D4K cleaving activity [3]: no serious reduction of the D4K cleaving activity for fusion proteins (gelatinase A, hK8, and tPA)
- Km (Z-Phe-Arg-MCA): 400 µM
- enzyme activity against wild-type (Z-Phe-Arg-MCA): The same held true for all the other mutants except for F144A
- kcat (Z-Phe-Arg-MCA): 0.0383 s⁻¹
- kcat/Km (mM^-1 · min^-1) (Z-Phe-Arg-MCA): 6
- Km (Pro-Phe-Arg-MCA): 1000 µM
- enzyme activity against wild-type (Pro-Phe-Arg-MCA): The same held true for all the other mutants except for F144A
- kcat (Pro-Phe-Arg-MCA): 0.153 s⁻¹
- kcat/Km (mM^-1 · min^-1) (Pro-Phe-Arg-MCA): 9
- Km [4]: 1000 µM
- enzyme activity against wild-type [4]: The same held true for all the other mutants except for F144A
- kcat [4]: 0.167 s⁻¹
- kcat/Km (mM^-1 · min^-1) [4]: 10
- nonspecific proteolytic activity [5]: this mutant enzyme still retained a low nonspecific proteolytic activity for protein substrates (HMW kininogen and fibrinogen)
- nonspecific proteolytic activity (SDS-PAGE) [5]: The mutant proteases had lower nonspecific proteolytic activity for human HMW kininogen
- activation of trypsinogen [6]: the other mutants activated trypsinogen at a reduced rate
- conversion of trypsinogen to active enzyme [6]: A total of 12 mutants could convert the recombinant Medaka trypsinogen to its active enzyme (data not shown)
- hydrolysis (mouse laminin): Neither human fibronectin nor laminin was hydrolyzed by the mutants (data not shown)
- nonspecific proteolytic activity (human fibrinogen, P02671): this mutant enzyme still retained a low nonspecific proteolytic activity for protein substrates (HMW kininogen and fibrinogen)
- nonspecific proteolytic activity (SDS-PAGE) (human fibrinogen, P02671): The mutant proteases had lower nonspecific proteolytic activity for ... human fibrinogen
- hydrolysis [7]: Neither human fibronectin nor laminin was hydrolyzed by the mutants (data not shown)
- D4K cleaving activity [8]: no serious reduction of the D4K cleaving activity for fusion proteins (gelatinase A, hK8, and tPA)

Reference: patent publication US20080213836
